Results from the supplement of paper PMC10724198.
± gives the standard deviation of the averaged measurements.

What follows are sequences tested on Saccharomyces cerevisiae (assay: protein stability index of tFT-peptide fusion (C-terminal peptide) (PSI (0-1 scale)); higher = more stable (slower turnover)). Details: genetic background: wild type; temperature: 30 C.
Protocol: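 Multiplexed protein stability (MPS) profiling in S. cerevisiae. Random 12-aa peptides (tFT-X12 library) are fused to the C-terminus of a sfGFP-mCherry tandem fluorescent timer, after mCherry and a GGGS linker. Cells are FACS-sorted into 8 mCherry/sfGFP bins and deep-sequenced. The protein stability index (PSI) is the read-weighted bin average, scaled from 0 (unstable) to 1 (stable). Only peptides with >10 reads are reported; cells were grown at 30 °C in SC-His with glucose.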
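Further: PSI is a weighted mean of sequencing reads over stability bins, variants kept only with over 10 reads, mCherry proximal and sfGFP distal, peptide attached via GGGS linker.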

Sequence | protein stability index
GQIVFDNSGSRW | 0.6955 ± 0.0028
GQKKARGRGGGM | 0.737 ± 0.0077
GQRKQKIKKKRK | 0.647 ± 0.16
GQRTKSHSRGGP | 0.648 ± 0.025
GQVACLVSREYT | 0.69 ± 0.018
GQVCSWRCVCYL | 0.6741 ± 0.0065
GRAVPKTHPGNL | 0.7686 ± 0.0037
GRCIQHPYKVNI | 0.679 ± 0.017
GRDFASNFRQLG | 0.718 ± 0.026
GRDKLNEDRDKV | 0.647 ± 0.0095
GRDPARPRPLAP | 0.677 ± 0.046
GREEKQGAENRT | 0.65 ± 0.018
GRFVTRAWARSW | 0.639 ± 0.018
GRGEIQDRRCRG | 0.668 ± 0.049
GRGFGFDITISS | 0.712 ± 0.098
GRGGIGDGGPVW | 0.6395 ± 0.00092
GRGGYGKESLYC | 0.627 ± 0.031
GRGRFMPRDWYW | 0.708 ± 0.028
GRGSGIAMGVWV | 0.801 ± 0.19
GRGVQWRAVGWE | 0.748 ± 0.041
GRGVVGLWVSGT | 0.699 ± 0.021
GRGWGWALGWCG | 0.698 ± 0.0095
GRIMRVPNENLT | 0.696 ± 0.22
GRKGVIAELIKI | 0.659 ± 0.11
GRKTRSPFLVLM | 0.5707 ± 0.002
GRLRLDAAGCMW | 0.675 ± 0.048

Sequence | protein stability index
GRNCGHSCANRP | 0.696 ± 0.027
GRPFCLGVKMFL | 0.673 ± 0.035
GRPGPSSPFLLP | 0.702 ± 0.052
GRQKIESSEAQT | 0.666 ± 0.022
GRRAGGTGAPSR | 0.642 ± 0.016
GRRDVTFGTAFF | 0.753 ± 0.052
GRRGGRLSWAPG | 0.659 ± 0.017
GRRHNPRTSSAQ | 0.756 ± 0.075
GRRLVHKVDWSL | 0.666 ± 0.043
GRRNVGLKNSGL | 0.645 ± 0.028
GRRRGGAVVEGV | 0.678 ± 0.01
GRRVRAPADFKS | 0.587 ± 0.02
GRSMWFIEFGLG | 0.7578 ± 0.0057
GRSQGIWVSRGE | 0.683 ± 0.028
GRTFPLATAPFL | 0.687 ± 0.085
GRVFRGRNGRCM | 0.7443 ± 0.0067
GRWEGLRGLGVG | 0.647 ± 0.012
GRWRVLREVGAS | 0.664 ± 0.01
GRYLIGKNKRVI | 0.687 ± 0.011
GSAGSAVRNVVS | 0.647 ± 0.051
GSANIDQEGVQY | 0.781 ± 0.091
GSFPPPARARLS | 0.677 ± 0.025
GSFPRLPPSKSF | 0.724 ± 0.14
GSFYGAVYVVPV | 0.669 ± 0.03
GSGDRSGCGWRG | 0.678 ± 0.025
GSGELYMGRLVE | 0.676 ± 0.047

Sequence | protein stability index
GSGTTGSLSYGV | 0.695 ± 0.02
GSIVVVGVVEGG | 0.729 ± 0.066
GSIWGVGWGQGV | 0.682 ± 0.11
GSLFVNRNCTVS | 0.697 ± 0.19
GSLPQLRAACRA | 0.566 ± 0.023
GSMRRSSVTLSA | 0.709 ± 0.065
GSMTGYVRVGEG | 0.57 ± 0.0064
GSNMTQAMTAGG | 0.656 ± 0.027
GSNQRRKGEHKP | 0.623 ± 0.036
GSNQYLNNTYLI | 0.64768 ± 0.00039
GSPSPLIALSRK | 0.689 ± 0.0073
GSRGGVAYGRVG | 0.741 ± 0.04
GSRGHLGRGGPG | 0.727 ± 0.017
GSRSGPARTTGR | 0.668 ± 0.024
GSRTHSMEDTTG | 0.646 ± 0.0098
GSSPPSARVRLF | 0.763 ± 0.03
GSSPVWRVAGAG | 0.721 ± 0.061
GSSRRWPGGRTI | 0.671 ± 0.073
GSSVRGSLGREI | 0.711 ± 0.028
GSVGFRTGRHLV | 0.615 ± 0.063
GSVLFPLPFRPF | 0.64 ± 0.11
GSVNGDTVGTQQ | 0.708 ± 0.013
GSVSGCVGVMRG | 0.641 ± 0.01
GSWRSFHVWYNS | 0.571 ± 0.042
GTAFDGGELSEG | 0.739 ± 0.045
GTGSEGVALRSG | 0.6697 ± 0.001

Sequence | protein stability index
GTGSVHYHRSGL | 0.676 ± 0.016
GTGTNGPSSAKL | 0.7399 ± 0.0056
GTHGVGGNIDLT | 0.648 ± 0.013
GTLGYALPTPYE | 0.6736 ± 0.0059
GTQSGGGGGKGG | 0.683 ± 0.044
GTRGVFEVCMDG | 0.704 ± 0.025
GTYGLCVWGRYL | 0.633 ± 0.056
GTYPGAGWRYEW | 0.694 ± 0.037
GVAGWGTVVGAQ | 0.712 ± 0.07
GVAISSGNHINH | 0.654 ± 0.12
GVAWGSGVGMMW | 0.718 ± 0.029
GVCAVCRLGLVA | 0.5574 ± 0.00072
GVCGGVGGWGVA | 0.698 ± 0.019
GVCPPAGDAGGV | 0.711 ± 0.018
GVEGDPESKGRV | 0.696 ± 0.068
GVFEGLVYGGLC | 0.719 ± 0.012
GVFVVGLSCSLR | 0.5521 ± 0.0048
GVGAERCFVGVV | 0.681 ± 0.077
GVGCVGGGSSCA | 0.67 ± 0.1
GVGFRVVRTSGR | 0.6859 ± 0.0018
GVGRGGAVENKV | 0.742 ± 0.054
GVGVGDCVRCMV | 0.619 ± 0.008
GVGWPGVGAGGG | 0.635 ± 0.05
GVGWQSPGVLVL | 0.605 ± 0.017
GVIGGLRAGVGG | 0.719 ± 0.079
GVLGWTRFRSCS | 0.715 ± 0.077

Sequence | protein stability index
GVLLWWGRRRGE | 0.7224 ± 0.0048
GVLWCGYGVGGG | 0.762 ± 0.11
GVNGSGFLSEVI | 0.6795 ± 0.0012
GVPGQFVSENII | 0.679 ± 0.027
GVQDVRAGLLEY | 0.676 ± 0.037
GVQFSVWCGSVG | 0.7 ± 0.04
GVRCVQGTVTGR | 0.7 ± 0.099
GVREGCRGGVGA | 0.625 ± 0.052
GVRGCGMTADVF | 0.668 ± 0.008
GVRGGCDRGEVG | 0.604 ± 0.046
GVRPWGGMCSCL | 0.7046 ± 0.0024
GVRSGAGGQGVG | 0.708 ± 0.069
GVSGQGLVAVEV | 0.59 ± 0.035
GVVALFLYLLVL | 0.494 ± 0.02
GVVERGRRAGEG | 0.659 ± 0.028
GVVGKDEGRSRA | 0.797 ± 0.038
GVVMLSDDGSAW | 0.718 ± 0.026
GVVSVFVGSLGG | 0.699 ± 0.067
GVVVVVVGRGLG | 0.574 ± 0.018
GVVWMSCGGGWG | 0.7543 ± 0.0068
GVVWMSCGGWWG | 0.7545 ± 0.0042
GVVWMSGGGWWG | 0.761 ± 0.03
GVWCFPVGVFRA | 0.529 ± 0.011
GVWGVGGGGGGR | 0.634 ± 0.088
GVWRCGVVGLSL | 0.665 ± 0.038
GVWSLVGRGGEG | 0.621 ± 0.017

Sequence | protein stability index
GVWVASCSGAGI | 0.632 ± 0.033
GWALGRAGASGA | 0.701 ± 0.067
GWGGAGGGGGRV | 0.652 ± 0.1
GWGGCGGWGFVG | 0.605 ± 0.011
GWGGIGDGGPVW | 0.679 ± 0.019
GWGVPGPEPREP | 0.658 ± 0.064
GWHVGCGCTVFR | 0.671 ± 0.061
GWKLGAGRRGVI | 0.704 ± 0.029
GWLGFVGGVRVQ | 0.685 ± 0.0063
GWRGAAGVPTVD | 0.73 ± 0.031
GWSFDLVSAQWG | 0.817 ± 0.02
GWSGCNWCIGVG | 0.584 ± 0.018
GWTGEVGVAAGA | 0.65 ± 0.064
GWVLRERGRGVG | 0.572 ± 0.07
GWWAVSRSGCCC | 0.693 ± 0.015
GYAGSRRLGLQE | 0.641 ± 0.015
GYHRGLSHVLED | 0.694 ± 0.018
GYLGEIHLHYVQ | 0.708 ± 0.048
GYWGRGGGLGGV | 0.7438 ± 0.001
GYYVLSIGGVIV | 0.574 ± 0.0065
HAARFRLPASPC | 0.672 ± 0.051
HAAWQHPNTTQV | 0.714 ± 0.013
HADFRTLLASRS | 0.67 ± 0.018
HAHPDQTKLDTA | 0.7 ± 0.063
HARAGTKPLTGY | 0.678 ± 0.0092
